T1: mouse FcγRI (Sino Biological Cat. No. 50086-M08H) (mouse, UniProt P26151 25-297)
T1 construct: bought
T1 sequence (looked up): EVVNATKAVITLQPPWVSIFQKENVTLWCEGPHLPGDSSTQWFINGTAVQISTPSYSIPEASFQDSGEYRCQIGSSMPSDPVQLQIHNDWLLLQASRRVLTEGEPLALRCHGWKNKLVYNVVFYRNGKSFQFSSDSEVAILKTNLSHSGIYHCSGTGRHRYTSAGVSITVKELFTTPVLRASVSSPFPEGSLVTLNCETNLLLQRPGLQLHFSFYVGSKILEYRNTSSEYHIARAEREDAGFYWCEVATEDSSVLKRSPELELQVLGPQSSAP

T2: human FcγRIIA (R131, Sino Biological Cat. No. 10374-H08H) (human, UniProt P12318 34-218)
T2 construct: bought; also called human FcγRIIa R131 allele; FcγRII allele R131
T2 sequence (looked up): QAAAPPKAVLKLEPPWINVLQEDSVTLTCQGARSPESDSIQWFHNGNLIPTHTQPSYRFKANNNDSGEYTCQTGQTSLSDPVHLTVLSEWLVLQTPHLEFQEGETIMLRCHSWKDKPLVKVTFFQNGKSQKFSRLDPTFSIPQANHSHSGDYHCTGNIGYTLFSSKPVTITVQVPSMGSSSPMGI

T3: human FcγRIIB (Sino Biological Cat. No. 10259-H08H) (human, UniProt P31994 43-217)
T3 construct: bought
T3 sequence (looked up): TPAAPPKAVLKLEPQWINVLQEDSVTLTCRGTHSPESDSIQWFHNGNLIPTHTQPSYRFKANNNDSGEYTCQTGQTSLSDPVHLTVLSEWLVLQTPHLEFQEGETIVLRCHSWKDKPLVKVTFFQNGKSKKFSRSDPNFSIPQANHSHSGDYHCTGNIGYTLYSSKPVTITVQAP

B1: anti-CD52 human IgG1 L234S/L235T/G236R (antibody)
heavy: QVQLQESGPGLVRPSQTLSLTCTVSGFTFTDFYMNWVRQPPGRGLEWIGFIRDKAKGYTTEYNPSVKGRVTMLVDTSKNQFSLRLSSVTAADTAVYYCAREGHTAAPFDYWGQGSLVTVSSASTKGPSVFPLAPSSKSTSGGTAALGCLVKDYFPEPVTVSWNSGALTSGVHTFPAVLQSSGLYSLSSVVTVPSSSLGTQTYICNVNHKPSNTKVDKKVEPKSCDKTHTCPPCPAPESTRGPSVFLFPPKPKDTLMISRTPEVTCVVVDVSHEDPEVKFNWYVDGVEVHNAKTKPREEQYNSTYRVVSVLTVLHQDWLNGKEYKCKVSNKALPAPIEKTISKAKGQPREPQVYTLPPSRDELTKNQVSLTCLVKGFYPSDIAVEWESNGQPENNYKTTPPVLDSDGSFFLYSKLTVDKSRWQQGNVFSCSVMHEALHNHYTQKSLSLSPGK
light: not shown
notes: also called 4-52; copies: 2 + 2
B2: anti-CD52 human IgG1 L234G/L235S/G236R (antibody)
heavy: QVQLQESGPGLVRPSQTLSLTCTVSGFTFTDFYMNWVRQPPGRGLEWIGFIRDKAKGYTTEYNPSVKGRVTMLVDTSKNQFSLRLSSVTAADTAVYYCAREGHTAAPFDYWGQGSLVTVSSASTKGPSVFPLAPSSKSTSGGTAALGCLVKDYFPEPVTVSWNSGALTSGVHTFPAVLQSSGLYSLSSVVTVPSSSLGTQTYICNVNHKPSNTKVDKKVEPKSCDKTHTCPPCPAPEGSRGPSVFLFPPKPKDTLMISRTPEVTCVVVDVSHEDPEVKFNWYVDGVEVHNAKTKPREEQYNSTYRVVSVLTVLHQDWLNGKEYKCKVSNKALPAPIEKTISKAKGQPREPQVYTLPPSRDELTKNQVSLTCLVKGFYPSDIAVEWESNGQPENNYKTTPPVLDSDGSFFLYSKLTVDKSRWQQGNVFSCSVMHEALHNHYTQKSLSLSPGK
light: not shown
notes: also called 4-19; copies: 2 + 2
B3: anti-CD52 human IgG1 L234S/L235V/G236R (antibody)
heavy: QVQLQESGPGLVRPSQTLSLTCTVSGFTFTDFYMNWVRQPPGRGLEWIGFIRDKAKGYTTEYNPSVKGRVTMLVDTSKNQFSLRLSSVTAADTAVYYCAREGHTAAPFDYWGQGSLVTVSSASTKGPSVFPLAPSSKSTSGGTAALGCLVKDYFPEPVTVSWNSGALTSGVHTFPAVLQSSGLYSLSSVVTVPSSSLGTQTYICNVNHKPSNTKVDKKVEPKSCDKTHTCPPCPAPESVRGPSVFLFPPKPKDTLMISRTPEVTCVVVDVSHEDPEVKFNWYVDGVEVHNAKTKPREEQYNSTYRVVSVLTVLHQDWLNGKEYKCKVSNKALPAPIEKTISKAKGQPREPQVYTLPPSRDELTKNQVSLTCLVKGFYPSDIAVEWESNGQPENNYKTTPPVLDSDGSFFLYSKLTVDKSRWQQGNVFSCSVMHEALHNHYTQKSLSLSPGK
light: not shown
notes: also called 4-53; copies: 2 + 2
B4: anti-CD52 human IgG1 L234T/L235Q/G236R (antibody)
heavy: QVQLQESGPGLVRPSQTLSLTCTVSGFTFTDFYMNWVRQPPGRGLEWIGFIRDKAKGYTTEYNPSVKGRVTMLVDTSKNQFSLRLSSVTAADTAVYYCAREGHTAAPFDYWGQGSLVTVSSASTKGPSVFPLAPSSKSTSGGTAALGCLVKDYFPEPVTVSWNSGALTSGVHTFPAVLQSSGLYSLSSVVTVPSSSLGTQTYICNVNHKPSNTKVDKKVEPKSCDKTHTCPPCPAPETQRGPSVFLFPPKPKDTLMISRTPEVTCVVVDVSHEDPEVKFNWYVDGVEVHNAKTKPREEQYNSTYRVVSVLTVLHQDWLNGKEYKCKVSNKALPAPIEKTISKAKGQPREPQVYTLPPSRDELTKNQVSLTCLVKGFYPSDIAVEWESNGQPENNYKTTPPVLDSDGSFFLYSKLTVDKSRWQQGNVFSCSVMHEALHNHYTQKSLSLSPGK
light: not shown
notes: also called 4-60; copies: 2 + 2
B5: anti-CD52 human IgG1 L234T/L235T/G236R (antibody)
heavy: QVQLQESGPGLVRPSQTLSLTCTVSGFTFTDFYMNWVRQPPGRGLEWIGFIRDKAKGYTTEYNPSVKGRVTMLVDTSKNQFSLRLSSVTAADTAVYYCAREGHTAAPFDYWGQGSLVTVSSASTKGPSVFPLAPSSKSTSGGTAALGCLVKDYFPEPVTVSWNSGALTSGVHTFPAVLQSSGLYSLSSVVTVPSSSLGTQTYICNVNHKPSNTKVDKKVEPKSCDKTHTCPPCPAPETTRGPSVFLFPPKPKDTLMISRTPEVTCVVVDVSHEDPEVKFNWYVDGVEVHNAKTKPREEQYNSTYRVVSVLTVLHQDWLNGKEYKCKVSNKALPAPIEKTISKAKGQPREPQVYTLPPSRDELTKNQVSLTCLVKGFYPSDIAVEWESNGQPENNYKTTPPVLDSDGSFFLYSKLTVDKSRWQQGNVFSCSVMHEALHNHYTQKSLSLSPGK
light: not shown
notes: also called 4-63; copies: 2 + 2
B6: anti-CD20 human IgG1 L234S/L235T (antibody)
heavy: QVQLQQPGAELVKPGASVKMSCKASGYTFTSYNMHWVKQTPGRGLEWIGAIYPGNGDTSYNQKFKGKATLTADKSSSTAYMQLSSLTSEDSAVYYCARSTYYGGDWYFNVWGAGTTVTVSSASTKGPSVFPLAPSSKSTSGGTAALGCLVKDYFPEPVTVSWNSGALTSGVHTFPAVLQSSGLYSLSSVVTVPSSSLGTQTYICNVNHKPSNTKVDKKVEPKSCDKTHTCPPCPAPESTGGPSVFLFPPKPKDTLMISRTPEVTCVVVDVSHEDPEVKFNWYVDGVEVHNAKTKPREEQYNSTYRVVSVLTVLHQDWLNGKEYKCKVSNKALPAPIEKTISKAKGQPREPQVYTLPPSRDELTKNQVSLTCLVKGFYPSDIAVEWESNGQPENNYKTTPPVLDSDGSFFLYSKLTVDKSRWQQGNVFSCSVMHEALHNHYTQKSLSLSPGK
light: QIVLSQSPAILSASPGEKVTMTCRASSSVSYIHWFQQKPGSSPKPWIYATSNLASGVPVRFSGSGSGTSYSLTISRVEAEDAATYYCQQWTSNPPTFGGGTKLEIKRTVAAPSVFIFPPSDEQLKSGTASVVCLLNNFYPREAKVQWKVDNALQSGNSQESVTEQDSKDSTYSLSSTLTLSKADYEKHKVYACEVTHQGLSSPVTKSFNRGEC
notes: also called 2-87
B7: anti-CD20 human IgG1 L235T/G236R (antibody)
heavy: not shown
light: QIVLSQSPAILSASPGEKVTMTCRASSSVSYIHWFQQKPGSSPKPWIYATSNLASGVPVRFSGSGSGTSYSLTISRVEAEDAATYYCQQWTSNPPTFGGGTKLEIKRTVAAPSVFIFPPSDEQLKSGTASVVCLLNNFYPREAKVQWKVDNALQSGNSQESVTEQDSKDSTYSLSSTLTLSKADYEKHKVYACEVTHQGLSSPVTKSFNRGEC
notes: also called 2-86

Tests used:
[1] = molecular target: T4, Sheep Fc-CD52 fusion protein (Absolute Antibody Cat. No. PR00205) (human, UniProt P31358 25-36); assay: ELISA, antigen coated, antibody 5 µg/mL
T4 construct: bought; also called CD52 antigen; human CD52; not shown: sheep Fc

[2] = molecular target: T1, mouse FcγRI (Sino Biological Cat. No. …); assay: SPR, captured His-receptor
[3] = molecular target: human FcγRIIIa V158 allele (human, UniProt P08637 17-208, limits assumed); assay: SPR, captured His-receptor
[4] = molecular target: T5, human FcγRIIIA (F158, Sino Biological Cat. No. 10389-H08H) (human, UniProt P08637 17-208); assay: SPR, captured His-receptor
T5 construct: bought; also called human FcγRIIIa F158 allele

[5] = molecular target: T2, human FcγRIIA (R131, Sino Biological …); assay: SPR, captured His-receptor
[6] = molecular target: T6, Histidine-tagged recombinant human FcγRI (CD64) (human, UniProt P12314 16-288); assay: SPR, captured His-receptor
T6 construct: bought; also called Sino Biological Cat. No. 12056-H08H

[7] = molecular target: T3, human FcγRIIB (Sino Biological Cat. No. …); assay: SPR, captured His-receptor
[8] = molecular target: T7, human FcγRIIIB (NA2 allotype, Sino Biological Cat. No. 11046-H08H) (human, UniProt O75015 17-200); assay: SPR, captured His-receptor
T7 construct: bought; also called human FcγRIIIb NA2 allele

[9] = molecular target: T8, Histidine-tagged recombinant human FcγRI (CD64) (human, UniProt P12314 16-288, limits assumed); assay: SPR, His-FcγRI captured; Expt 1 Rep 1;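 further: antibody analyte injected at 100 µg/mL for 1 min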
T8 construct: bought

[10] = molecular target: T8, Histidine-tagged recombinant human …; assay: SPR, His-FcγRI captured; Expt 2 Rep 2;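 further: antibody analyte injected at 100 µg/mL for 1 min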
[11] = molecular target: T8, Histidine-tagged recombinant human …; assay: SPR, His-FcγRI captured; Expt 1 Rep 2;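 further: antibody analyte injected at 100 µg/mL for 1 min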

human FcγRIIIa V158 allele, sequence (P08637 17-208 F176V limits assumed): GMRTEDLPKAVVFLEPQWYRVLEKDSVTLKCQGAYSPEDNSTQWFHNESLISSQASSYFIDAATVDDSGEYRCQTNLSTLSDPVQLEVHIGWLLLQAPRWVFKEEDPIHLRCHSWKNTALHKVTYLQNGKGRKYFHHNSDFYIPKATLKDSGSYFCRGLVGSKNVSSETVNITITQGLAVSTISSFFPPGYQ
T5 sequence (P08637 17-208 limits assumed): as the sequence (P08637 17-208 F176V limits assumed) above, with V160F counted along it

Row | Binder | Mean Absorbance [1] [absorbance] | binding result [2] | binding result [3] | binding result [4] | binding result [5] | binding result [6] | binding result [7] | binding result [8] | Corrected response (RU) [9] [RU] | Corrected response (RU) [10] [RU] | Corrected response (RU) [11] [RU]
1 | B1 | 1.44 | no binding (tested: 100 µg/mL) | no binding (tested: 100 µg/mL) | no binding (tested: 100 µg/mL) | no binding (tested: 100 µg/mL) | no binding (tested: 100 µg/mL) | no binding (tested: 100 µg/mL) | no binding (tested: 100 µg/mL) | – | – | –
2 | B2 | 1.13 | no binding (tested: 100 µg/mL) | no binding (tested: 100 µg/mL) | no binding (tested: 100 µg/mL) | no binding (tested: 100 µg/mL) | no binding (tested: 100 µg/mL) | no binding (tested: 100 µg/mL) | no binding (tested: 100 µg/mL) | – | – | –
3 | B3 | 1.23 | no binding (tested: 100 µg/mL) | no binding (tested: 100 µg/mL) | no binding (tested: 100 µg/mL) | no binding (tested: 100 µg/mL) | no binding (tested: 100 µg/mL) | no binding (tested: 100 µg/mL) | no binding (tested: 100 µg/mL) | – | – | –
4 | B4 | 1.35 | no binding (tested: 100 µg/mL) | no binding (tested: 100 µg/mL) | no binding (tested: 100 µg/mL) | no binding (tested: 100 µg/mL) | no binding (tested: 100 µg/mL) | no binding (tested: 100 µg/mL) | no binding (tested: 100 µg/mL) | – | – | –
5 | B5 | 1.48 | no binding (tested: 100 µg/mL) | no binding (tested: 100 µg/mL) | no binding (tested: 100 µg/mL) | no binding (tested: 100 µg/mL) | no binding (tested: 100 µg/mL) | no binding (tested: 100 µg/mL) | no binding (tested: 100 µg/mL) | – | – | –
6 | B6 | – | – | – | – | – | – | – | – | 62.9 | 62.4 | 54.1
7 | B7 | – | – | – | – | – | – | – | – | -9.4 | 0 | -10.6
